The source of these data is the RNAGym collection of RNA variant scans (doi:10.7554/elife.80360).

Sequences and labels used below:
B1: Hammerhead Ribozyme (parent)
chain: ACCGGAUGUGCUUUCCGGUCUGAUGAGUCCGUGAGGACGAAACAG

The variants in the data set derive from B1. Kind of data set: self-cleavage, relative activity (ratio to wild type); higher = more cleavage; co-transcriptional.
Regarding A34U A42C, the self-cleavage amounted to 0.3.

With A34U A42U, the self-cleavage worked out at 0.306.

Regarding A34U A42G, the self-cleavage stood at 0.258.

As to A34G G39U, the self-cleavage is 0.308.

Take A34G G39A: the self-cleavage came out at 0.288.

Take A34G G39C: the self-cleavage is 0.338.

For the variant G35C G36U, the self-cleavage was found to be 0.401.

Take G35C G36C: the self-cleavage is 0.425.

Consider G35C G36A, for which the self-cleavage was determined as 0.504.

As for A37G A42U, the self-cleavage came to 0.32.

Regarding A37G A42C, the self-cleavage worked out at 0.342.

With A37G A42G, the self-cleavage came out at 0.264.

G35A A41C: the self-cleavage is 0.32.

For G35A A41G, the self-cleavage amounted to 0.328.

For the variant G35A A41U, the self-cleavage worked out at 0.278.

Consider G35U C38U, for which the self-cleavage is 0.775.

On to G35U C38G, for which the self-cleavage was 0.374.

As to G35U C38A, the self-cleavage amounted to 0.404.

Take A37C A41G: the self-cleavage was found to be 0.404.

In the case of A37C A41C, the self-cleavage was found to be 0.285.

In the case of A37C A41U, the self-cleavage turned out to be 0.296.

As for G36U A40G, the self-cleavage was 0.29.

Turning to G36U A40C, the self-cleavage worked out at 0.43.

In the case of G36U A40U, the self-cleavage turned out to be 0.281.

On to A34G A40G, for which the self-cleavage is 0.345.

Consider A34G A40C, for which the self-cleavage was determined as 0.44.

As to A34G A40U, the self-cleavage was 0.334.

As for G35C G45C, the self-cleavage is 0.395.

In the case of G35C G45U, the self-cleavage was 0.498.

G35C G45A: the self-cleavage came out at 0.385.

Consider G36U G39A, for which the self-cleavage is 0.352.

In the case of G36U G39C, the self-cleavage was found to be 0.34.

Turning to G36U G39U, the self-cleavage amounted to 0.333.

In the case of A34U A41G, the self-cleavage worked out at 0.305.

As for A34U A41U, the self-cleavage came out at 0.281.

For the variant A34U A41C, the self-cleavage was found to be 0.289.

Regarding A34C A44U, the self-cleavage amounted to 0.512.

In the case of A34C A44G, the self-cleavage came out at 0.727.

As for A34C A44C, the self-cleavage stood at 0.341.

On to G35C A42U, for which the self-cleavage amounted to 0.324.

For G35C A42G, the self-cleavage amounted to 0.26.

Regarding G35C A42C, the self-cleavage came out at 0.283.

A34C G45C: the self-cleavage was determined as 0.441.

As for A34C G45A, the self-cleavage was found to be 0.524.

With A34C G45U, the self-cleavage stood at 0.515.

Consider G35A A37U, for which the self-cleavage worked out at 0.414.

Turning to G35A A37G, the self-cleavage amounted to 0.58.

Regarding G35A A37C, the self-cleavage worked out at 0.364.

In the case of A34G C43A, the self-cleavage was found to be 0.32.

As for A34G C43U, the self-cleavage is 0.393.

A34G C43G: the self-cleavage came to 0.471.

For A37C A42G, the self-cleavage is 0.235.

Take A37C A42C: the self-cleavage was 0.241.

As for A37C A42U, the self-cleavage came out at 0.27.

Turning to A37G C38G, the self-cleavage is 0.79.

As for A37G C38A, the self-cleavage amounted to 0.639.

Turning to G36C G39A, the self-cleavage was 0.29.

Regarding G36C G39U, the self-cleavage came to 0.325.

As for G36C G39C, the self-cleavage was 0.335.

With A34G G35U, the self-cleavage came to 0.847.

Turning to A34G G35A, the self-cleavage was 0.675.

Take A34G G35C: the self-cleavage stood at 0.771.

Regarding G35C A37U, the self-cleavage was 0.517.

On to G35C A37G, for which the self-cleavage was 0.563.

With G35C A37C, the self-cleavage was 0.504.

Take A34C G39U: the self-cleavage was 0.404.

For the variant A34C G39A, the self-cleavage is 0.288.

With A34C G39C, the self-cleavage was determined as 0.32.

For A34U, the self-cleavage stood at 0.926.

Consider A34G, for which the self-cleavage is 0.902.

In the case of A34C, the self-cleavage is 0.909.

For the variant G35A, the self-cleavage was 0.798.

As for G35U, the self-cleavage is 0.817.

For G35C, the self-cleavage came to 0.791.

In the case of G36A C38G, the self-cleavage amounted to 0.342.

Take G36A C38A: the self-cleavage turned out to be 0.345.

On to G36A C38U, for which the self-cleavage is 0.531.

For A34U G45A, the self-cleavage turned out to be 0.477.

Turning to A34U G45C, the self-cleavage is 0.533.

On to A34U G45U, for which the self-cleavage was found to be 0.625.

Consider G33U G45A, for which the self-cleavage was 0.698.

Consider G33U G45U, for which the self-cleavage was 0.912.

G33U G45C: the self-cleavage was 0.752.

For the variant G36C G45A, the self-cleavage worked out at 0.374.

Consider G36C G45C, for which the self-cleavage is 0.393.

As for G36C G45U, the self-cleavage came out at 0.367.

With G36U A44U, the self-cleavage was found to be 0.379.

In the case of G36U A44C, the self-cleavage worked out at 0.339.

For the variant G36U A44G, the self-cleavage came to 0.706.

For A34C A40G, the self-cleavage stood at 0.334.

As for A34C A40U, the self-cleavage was 0.419.

For the variant A34C A40C, the self-cleavage is 0.316.

A34C C38A: the self-cleavage was 0.472.

Regarding A34C C38G, the self-cleavage was 0.436.

Turning to A34C C38U, the self-cleavage turned out to be 0.758.

As to G36A A42G, the self-cleavage was 0.25.

G36A A42U: the self-cleavage came out at 0.333.

Take G36A A42C: the self-cleavage came to 0.287.

In the case of A34C A42C, the self-cleavage was 0.397.

Consider A34C A42G, for which the self-cleavage was found to be 0.254.

In the case of A34C A42U, the self-cleavage was 0.322.

Consider G36U A42G, for which the self-cleavage came out at 0.316.

Turning to G36U A42U, the self-cleavage turned out to be 0.329.

In the case of G36U A42C, the self-cleavage came to 0.37.

On to G36C A42C, for which the self-cleavage worked out at 0.321.

Regarding G36C A42U, the self-cleavage was 0.286.

G36C A42G: the self-cleavage was 0.272.

On to A34G A42G, for which the self-cleavage came out at 0.264.

As to A34G A42C, the self-cleavage came out at 0.294.

In the case of A34G A42U, the self-cleavage came out at 0.329.

Regarding A37C C43A, the self-cleavage came out at 0.301.

Consider A37C C43G, for which the self-cleavage came to 0.28.

Take A37C C43U: the self-cleavage amounted to 0.392.

As to G35C A44C, the self-cleavage worked out at 0.42.

As for G35C A44G, the self-cleavage stood at 0.692.

For G35C A44U, the self-cleavage stood at 0.465.

As to G36A G39U, the self-cleavage is 0.322.

In the case of G36A G39C, the self-cleavage amounted to 0.306.

As for G36A G39A, the self-cleavage was found to be 0.337.

Consider G35A G45U, for which the self-cleavage worked out at 0.471.

On to G35A G45A, for which the self-cleavage turned out to be 0.452.

As to G35A G45C, the self-cleavage came out at 0.437.

A34U C38G: the self-cleavage is 0.403.

Take A34U C38U: the self-cleavage was determined as 0.799.

Take A34U C38A: the self-cleavage is 0.409.

As to A34C G35C, the self-cleavage came to 0.398.

Turning to A34C G35A, the self-cleavage came to 0.893.

As to A34C G35U, the self-cleavage came out at 0.58.

As to G36A A37U, the self-cleavage was 0.533.

For G36A A37G, the self-cleavage was 0.556.

Turning to G36A A37C, the self-cleavage turned out to be 0.414.

On to G36A G45C, for which the self-cleavage came to 0.422.

With G36A G45U, the self-cleavage came to 0.452.

With G36A G45A, the self-cleavage stood at 0.444.

Take G33U C43A: the self-cleavage was 0.466.

Regarding G33U C43G, the self-cleavage was found to be 0.449.

Take G33U C43U: the self-cleavage came to 0.598.

As for A37G A41C, the self-cleavage came to 0.358.

For the variant A37G A41G, the self-cleavage stood at 0.268.

A37G A41U: the self-cleavage was determined as 0.378.

On to G33U G36C, for which the self-cleavage was found to be 0.623.

Take G33U G36U: the self-cleavage is 0.618.

Regarding G33U G36A, the self-cleavage amounted to 0.765.

For G35A A40C, the self-cleavage was determined as 0.435.

Regarding G35A A40U, the self-cleavage was 0.317.

On to G35A A40G, for which the self-cleavage came out at 0.37.

As to A37G A44U, the self-cleavage was 0.595.

On to A37G A44G, for which the self-cleavage came out at 0.74.

With A37G A44C, the self-cleavage turned out to be 0.313.

Take A37G A40G: the self-cleavage is 0.274.

With A37G A40U, the self-cleavage was 0.399.

For the variant A37G A40C, the self-cleavage turned out to be 0.407.

Consider A34U G35A, for which the self-cleavage is 0.638.

Consider A34U G35C, for which the self-cleavage was 0.631.

For A34U G35U, the self-cleavage stood at 0.584.

G35U A42G: the self-cleavage was 0.253.

As to G35U A42U, the self-cleavage was determined as 0.344.

As to G35U A42C, the self-cleavage came out at 0.384.

A34C G36A: the self-cleavage is 0.345.

A34C G36U: the self-cleavage was determined as 0.437.

Turning to A34C G36C, the self-cleavage came out at 0.419.

Turning to G35U G45U, the self-cleavage was determined as 0.421.

Consider G35U G45C, for which the self-cleavage came to 0.466.

For the variant G35U G45A, the self-cleavage came to 0.473.

For A34G A44G, the self-cleavage was found to be 1.23.

Consider A34G A44C, for which the self-cleavage stood at 0.41.

Take A34G A44U: the self-cleavage worked out at 0.526.
